Residue numbers refer to the chain shown, from its start. Read-outs that look alike come from different tables or passages of the source.
Legend:
[1] = target: human PD-1 expressed on cells (CHO human PD-1 cells) (human) (UniProt Q15116)
[2] = target: human PD-1 expressed on cells (CHO human PD-1 cells) (human) (UniProt Q15116); remark: listed apart in the source
[3] = target: T1, recombinant human PD-1 Fc chimera (human, UniProt Q15116 25-167); experiment: HTRF inhibition assay: biotinylated PD-L2-Fc binding to Europium cryptate labelled human PD-1-Fc; the target of the control antibody is not given
T1 construct: Bought (R&D 1086-PD); Labelled with europium cryptate in the PD-L2 HTRF assay; also called human PD-1 (R&D Systems cat no. 1086-PD); human PD-1-huFc; not shown: human Fc of the bought chimera

[4] = target: T1, recombinant human PD-1 Fc chimera; experiment: HTRF inhibition assay: strep tagged human PD-L1 binding to recombinant human PD-1 (PD-L1 by legend paragraph 65; the sheet's title reads PD1:PDL2); the target of the control antibody is not given
[5] = target: T2, mouse PD1 (R&D Systems cat no. 1021-PD) (mouse, UniProt Q02242 25-167); experiment: HTRF binding assay on mouse PD-1
T2 construct: bought recombinant protein; also called mouse PD-1 protein
T2 sequence (looked up): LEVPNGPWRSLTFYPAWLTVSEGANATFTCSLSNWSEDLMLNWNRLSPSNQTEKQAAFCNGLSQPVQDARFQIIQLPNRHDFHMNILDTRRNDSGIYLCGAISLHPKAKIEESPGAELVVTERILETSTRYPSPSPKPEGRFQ
Method: (§1) Purified VH were tested for their ability to bind to human PD-1 (R&D Systems cat no. 1086-PD), cynomolgus PD-1 (Acro Biosystems cat no. PD1-C5254) and mouse PD1 (R&D Systems cat no. 1021-PD) in an HTRF Binding assay format. All reagents and serially diluted VH were prepared in assay buffer containing PBS, 0.1% BSA and 0.4M Potassium Fluoride. Samples or assay buffer (non-specific binding) were incubated with 2 nM human/cynomolgus or mouse PD-1, 1 nM Anti human-Fc Cryptate PAb (Cisbio cat. no. 61HFCKLB) and 30 nM anti His-D2 (CisBio cat no 61HISDLA) in black 384-shallow well assay plates for a minimum of 3 hours at room temperature. Time-resolved fluorescent emission at 620 nm and 665 nm was measured following excitation at 337 nm on the BMG PHERAstar plate reader. The HTRF ratio were calculated ((665 nm emission/620 nm emission)*10000) and the data corrected for (non-specific binding) to give the specific binding signal.

[6] = target: T3, human PD-1 expressed on cells (CHO human PD-1 cells) (human, UniProt Q15116 21-288); experiment: FMAT epitope competition on CHO human PD-1 cells; competitor 2 nM 2.1-Strep tagged protein
T3 construct: CHO cells in the FMAT assays; Jurkat reporter cells in the reporter assay; primary CD4+ T cells in the mixed lymphocyte reaction; also called CHO TREX human PD1 cell line; CHO PD-1
Method: (§2) For the epitope competition assay reagents were prepared in FMAT assay buffer. […] Plates were incubated for a minimum of 1.5 hours at room temperature then fluorescence measured in the FL2 (502 nm-537 nm) and FL5 (677-800 nm) channels on the Mirrorball plate reader (TTP) following excitation at 488 nm and 640 nm. Data was expressed as a % of the total binding control (i.e. % control) after subtraction of the background signal determined from the non-specific binding control wells.

[7] = target: T1, recombinant human PD-1 Fc chimera; experiment: HTRF inhibition assay: strep tagged human PD-L1 binding to recombinant human PD-1 (PD-L1 by legend paragraph 65; the sheet's title reads PD1:PDL2)
Method: All samples and reagents were prepared in HTRF assay buffer containing PBS, 0.1% (w/v) BSA and 0.4M Potassium Fluoride. […] Total binding controls containing periplasmic extract sample buffer and non-specific binding controls containing excess untagged competitor were set up on each plate for data normalisation. Time-resolved fluorescent emission at 620 nm and 665 nm was measured following excitation at 337 nm on the BMG PHERAstar plate reader. Data was expressed as a % of the total binding control (% control) after subtraction of the background signal determined from the non-specific binding control wells.

[8] = target: T3, human PD-1 expressed on cells (CHO …); experiment: FMAT binding assay on CHO human PD-1 cells, detection by anti-His
Source text: Plates were read in the FL2 (502 nm-537 nm) and FL5 (677-800 nm) channels on the TTP Mirrorball plate reader following excitation at 488 nm and 640 nm. Data was gated on FL5 perimeter and peak intensity and the FL2 median mean fluorescence intensity of the gated data used for determination of VH binding.

[9] = target: T1, recombinant human PD-1 Fc chimera; experiment: BLI (Octet), PD-1-huFc on biosensor, 1:1 fit
Method: Binding kinetics of clones to human PD-1-huFc were measured in real-time bio-layer interferometer based biosensor Octet (ForteBio). Recombinant human PD-1-huFc was either immobilized by standard amine coupling to amine reactive biosensors in 10 mM sodium acetate at pH 5.0 or capture by protein G biosensors (ForteBio). All the binding studies were performed in HBS-ET Octet kinetics buffer. Biosensors were always washed in Octet kinetics buffer in between different steps. A seven point, two-fold dilution series of each Humabody® VH was made with a top concentration in range 100-30 nM. The contact time for each of the association steps was varied between 180-300 seconds and the dissociation step was varied between 400-600 seconds. Kinetic association (kₐ) and dissociation (kd) rate constants were determined by processing and fitting the data to a 1:1 binding model using ForteBio Analysis software.

[10] = target: T1, recombinant human PD-1 Fc chimera; experiment: HTRF binding assay, His-tagged VH on 2 nM recombinant PD-1
Method: as §1

[11] = target: T4, cynomolgus PD-1 (Acro Biosystems cat no. PD1-C5254) (cynomolgus, UniProt B0LAJ3 25-170); experiment: as above
T4 construct: bought recombinant protein; also called cyno PD-1; cynomolgus PD-1 recombinant protein; not shown: Human Fc tag of the vendor's construct, and any linker to it; The Fc is implied by detection with anti human-Fc cryptate
Method: as §1

[12] = target: T3, human PD-1 expressed on cells (CHO …); experiment: FMAT epitope competition on CHO human PD-1 cells; competitor 2 nM 1.1-Strep tagged protein
Method: as §2

[13] = target: human PD-1 expressed on cells (CHO human PD-1 cells) (human) (UniProt Q15116); remark: listed apart in the source
[14] = target: T2, mouse PD1 (R&D Systems cat no. 1021-PD); experiment: HTRF binding assay, 2 nM mouse PD-1
[15] = target: T3, human PD-1 expressed on cells (CHO …); experiment: FMAT, His-tagged VH on CHO human PD-1 cells
[16] = target: T1, recombinant human PD-1 Fc chimera; experiment: SPR (Biacore T200), PD-1-huFc amine-coupled to CM5, single cycle kinetics, 1:1 fit
Method: Binding kinetics of certain VH single domain antibodies binding to human PD-1-huFc were measured by surface plasmon resonance (SPR) technology using Biacore T200 instrument (GE Healthcare). Recombinant human PD-1-huFc was immobilized by standard amine coupling to CM5 sensorschip (GE Healthcare) using 0.01 mg/ml solution of antigen in 10 mM sodium acetate at pH 5.5. For the reference flow cell, a blank immobilisation was carried out. Single cycle kinetics assays were used to study the interaction, a five point, three-fold dilution series of each Humabody® was made with a top concentration of 30 nM. The binding kinetics were followed by flowing the Humabody® over the chip surface in HBS EP+ buffer at a flow rate of 30 μl/min. The contact time for each of the association steps was 180 seconds and the dissociation step was varied between 1200-3600 seconds. The data was fitted to a 1:1 binding model after double reference subtraction using the Biacore T200 Evaluation software.

[17] = target: T3, human PD-1 expressed on cells (CHO …); experiment: cell-based or functional assay

human PD-1 expressed on cells (CHO human PD-1 cells) (human), sequence (Q15116 21-288): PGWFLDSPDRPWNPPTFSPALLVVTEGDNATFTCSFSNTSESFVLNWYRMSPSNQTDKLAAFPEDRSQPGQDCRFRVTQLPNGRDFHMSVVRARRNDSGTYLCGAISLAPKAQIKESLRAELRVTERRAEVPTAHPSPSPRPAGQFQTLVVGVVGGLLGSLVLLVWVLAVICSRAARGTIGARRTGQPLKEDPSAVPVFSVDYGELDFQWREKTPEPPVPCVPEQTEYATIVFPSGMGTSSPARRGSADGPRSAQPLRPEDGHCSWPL
T3 sequence (Q15116 21-288): as above
T1 sequence (Q15116 25-167, change not shown): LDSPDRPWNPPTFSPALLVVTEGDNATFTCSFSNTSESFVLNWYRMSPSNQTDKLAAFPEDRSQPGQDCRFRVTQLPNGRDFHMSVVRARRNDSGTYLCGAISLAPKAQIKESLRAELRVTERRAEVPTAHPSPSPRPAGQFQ
T4 sequence (B0LAJ3 entry or part of it limits assumed): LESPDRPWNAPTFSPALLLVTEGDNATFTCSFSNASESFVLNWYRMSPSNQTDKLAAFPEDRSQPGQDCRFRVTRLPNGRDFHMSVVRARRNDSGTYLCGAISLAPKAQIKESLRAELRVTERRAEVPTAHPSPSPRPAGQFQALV

## Control
[1]
  EC50 (read off the curve), NFAT-luciferase reporter: 20 nM
[2]
  EC50 (read off the curve), NFAT-luciferase reporter: 5 nM

## Control anitbody (antibody)
[3]
  IC50 (read off the curve): 0.3 nM
[4]
  IC50 (read off the curve): 0.3 nM

B1: VH single domain antibody 1.1 (VHH)
VHH: EVQLLESGGGSVQPGRSLRLSCAASGFTFDDHAMHWVRQAPGKGLEWVSGISWNSGSMGYADSVKDRFTISRDNAKSSLYLQMNSLRAEDTALYYCVREKGPGLTGSTADYYGLDVWGQGTMVTVSS
notes: human VH single domain antibody (Humabody), purified through its C-terminal His tag; also called Humabody 1.1; clone 1.1
[5]
  binding result: no binding
[6]
  IC50: 3.6 nM
[7]
  IC50 (read off the curve): ~2 nM
[8]
  EC50 (read off the curve): ~0.5 nM
[9]
  Kd: 1.9 nM
  kon: 450000 M⁻¹ s⁻¹
[10]
  EC50: 0.5 nM
[11]
  EC50: 0.6 nM
[12]
  IC50: 3.5 nM

B2: VH single domain antibody 1.2 (VHH)
VHH: EVQLVESGGGLVQPGRSLRLSCAASGFTFDDYAMHWVRQAPGKDLEWVSGISWNGGSMGYAASVKGRFTISRDNAKNSLYLQMNSLRAEDTALYYCVKDKGPGLIGSTADYYGLDVWGQGTTVTVSS
notes: human VH single domain antibody
[5]
  binding result: no binding
[7]
  IC50 (read off the curve): ~5 nM
[10]
  EC50: 0.9 nM
[11]
  EC50: 1.1 nM

B3: 1.21 (VHH)
VHH: B2 VHH with K98R, D99E, I105T, T122M
notes: also called VH single domain antibody 1.21; Humabody VH 1.21
[8]
  EC50 (read off the curve): ~0.7 nM

B4: Blocking VH-4GS-2.12 (protein, part only; not given: 4GS linker, part only)
VH(A)-linker-VH, part: EVQLVESGGGLVKPGGSLRLSCAASGFTFSDESMTWMRQAPGKGLEWVSYISSGGGVKFYADSVKGRFTISRDNAKNSLYLQMNSLRAEDTAVYYCAREAPLRLGESPHDAFDISGQGTMVTVSSEVQLVESGGGVVRPGGSLRLSCAASGFTFDDYAMSWVRQAPGKGLEWVSGITWNAGSTGYADSVKGRFTISRDNAKNSLYLQMNSLRAEDTALYYCVRDKYSYAWSYDDFDIWGQGTMVTVSS
[13]
  EC50 (read off the curve), NFAT-luciferase reporter: 1 nM

B5: VH single domain antibody 2.1 (VHH)
VHH: EVQLVESGGGVVRPGGSLRLSCAASGFTFDDYAMSWVRQAPGKGLEWVSGITWNGGSTGYADSVKDRFTISRDNAKNSLYLQMNSLRAEDTALYYCVRDKYSYAWSYDGFDIWGQGTMVTVSS
notes: human VH single domain antibody; also called Humabody VH 2.1; clone 2.1
[6]
  IC50: 9.4 nM
[14]
  binding result: no binding
[9]
  Kd: 2.6 nM
  koff: 0.0015 s⁻¹
  kon: 590000 M⁻¹ s⁻¹
[10]
  EC50: 3.3 nM
[11]
  EC50: 6.3 nM
[15]
  EC50: 0.7 nM
[12]
  IC50: 9.2 nM

B6: Humabody VH 2.12 (VHH)
VHH: B5 VHH with G55A, D66G, G109D
notes: as for B2
[14]
  binding result: no binding
[16]
  Kd: 6.89 nM
  koff: 0.0385 s⁻¹
  kon: 5.5e+06 M⁻¹ s⁻¹
[10]
  EC50: 13 nM
[11]
  EC50: 18 nM
[15]
  EC50: 1.3 nM

B7: Blocking VH (VHH)
VHH: EVQLVESGGGLVKPGGSLRLSCAASGFTFSDESMTWMRQAPGKGLEWVSYISSGGGVKFYADSVKGRFTISRDNAKNSLYLQMNSLRAEDTAVYYCAREAPLRLGESPHDAFDISGQGTMVTVSS
[17]
  EC50 (read off the curve), NFAT-luciferase reporter: ~20 nM

B8: Blocking VH-4GS-1.39 (protein, part only; not given: 4GS linker, part only)
VH(A)-linker-VH, part: EVQLVESGGGLVKPGGSLRLSCAASGFTFSDESMTWMRQAPGKGLEWVSYISSGGGVKFYADSVKGRFTISRDNAKNSLYLQMNSLRAEDTAVYYCAREAPLRLGESPHDAFDISGQGTMVTVSSEVQLVESGGGLVQPGRSLRLSCAASGFTFDDYALHWVRQAPGKDLEWVSGISWNGGSYGYADSVKGRFTISRDNAKNSLYLQMNSLRAEDTALYYCVREKGPGLTGSTADYYGLDAWGQGTMVTVSS
[13]
  EC50 (read off the curve), NFAT-luciferase reporter: 2 nM

— US20200239570A1 (CRESCENDO BIOLOGICS, published 2020)
